Source: patent publication US5908790A, “Methods for removing heavy metals from aqueous solutions and for analysis” (Behring Diagnostics GmbH, priority 1990, dated 1999)

Columns and labels:
Format in all cases: binding
EDTA-Y = assay: Quantitative inhibition ELISA of mAB, competitor EDTA-Y; settings: solid phase Y benzyl-DTPA-HSA conjugate
Description: (§1) The ELISA comprised a solid phase which was loaded with a solution containing human serum albumin (HSA)-benzyl-DTPA. The supernatant which was to be tested and contained the mAB was preincubated with free complexone or the metal ion complex thereof, and its binding to the specific solid phase was measured. For this purpose, an enzyme amplification system which is coupled to an anti-mouse-immunoglobulin antibody was used. The details of this method are described in Examples 2 and 3.
(§2) The complexones DTPA and EDTA in noncomplexed and in complexed form (Example 4) were used as competitors. Additionally, the structurally related compounds transaconitic acid and 1,2-diaminoethane were used as inhibitors (see Tab. I). The excess amounts of competitor presented in Tab. […] These characteristics make it possible to use the mAB, e.g. coupled on filters or other solid supports, for removing both noncomplexed EDTA or DTPA and EDTA-metal ion or DTPA-metal ion complexes from liquids. Precipitation reactions of mAB-/EDTA-metal ion complexes are likewise suitable for removing the toxic metal ions.
(§3) Divisible 96-well polystyrene microtiter plates (U-shape) type B. supplied by Nunc, No. 4-60445 were employed as support material. The assay was carried out according to the following protocol. […]
(§4) (15) The extinctions are measured at 492 nm in the TITERTEK^R MULTISCAN. […]

DTPA-Cu = assay: Quantitative inhibition ELISA of mAB, competitor DTPA-Cu; settings: solid phase Y benzyl-DTPA-HSA conjugate
Description: as §1, §2, §3, §4

DTPA-Pb = assay: Quantitative inhibition ELISA of mAB, competitor DTPA-Pb; settings: solid phase Y benzyl-DTPA-HSA conjugate
Description: as §1, §2, §3, §4

EDTA-Cu = assay: Quantitative inhibition ELISA of mAB, competitor EDTA-Cu; settings: solid phase Y benzyl-DTPA-HSA conjugate
Description: as §1, §2, §3, §4

DTPA-Zn = assay: Quantitative inhibition ELISA of mAB, competitor DTPA-Zn; settings: solid phase Y benzyl-DTPA-HSA conjugate
Description: as §1, §2, §3, §4

[1] = Quantitative inhibition ELISA of mAB, competitor 1,2-diaminoethane; settings: no inhibition up to the stated excess
Description: as §1, §2, §3, §4

DTPA-Mn = assay: Quantitative inhibition ELISA of mAB, competitor DTPA-Mn; settings: solid phase Y benzyl-DTPA-HSA conjugate
Description: as §1, §2, §3, §4

DTPA-Cd = assay: Quantitative inhibition ELISA of mAB, competitor DTPA-Cd; settings: solid phase Y benzyl-DTPA-HSA conjugate
Description: as §1, §2, §3, §4

EDTA-Mn = assay: Quantitative inhibition ELISA of mAB, competitor EDTA-Mn; settings: solid phase Y benzyl-DTPA-HSA conjugate
Description: as §1, §2, §3, §4

EDTA-Pb = assay: Quantitative inhibition ELISA of mAB, competitor EDTA-Pb; settings: solid phase Y benzyl-DTPA-HSA conjugate
Description: as §1, §2, §3, §4

[2] = Quantitative inhibition ELISA of mAB, competitor EDTA
Description: as §1, §2, §3, §4

EDTA-Cd = assay: Quantitative inhibition ELISA of mAB, competitor EDTA-Cd; settings: solid phase Y benzyl-DTPA-HSA conjugate
Description: as §1, §2, §3, §4

EDTA-Zn = assay: Quantitative inhibition ELISA of mAB, competitor EDTA-Zn; settings: solid phase Y benzyl-DTPA-HSA conjugate
Description: as §1, §2, §3, §4

DTPA-Y = assay: Quantitative inhibition ELISA of mAB, competitor DTPA-Y; settings: solid phase Y benzyl-DTPA-HSA conjugate
Description: as §1, §2, §3, §4

[3] = Quantitative inhibition ELISA of mAB, competitor DTPA; settings: competitor DTPA (noncomplexed); solid phase Y benzyl-DTPA-HSA conjugate
Description: as §1, §2, §3, §4

[4] = Quantitative inhibition ELISA of mAB, competitor transaconitic acid; settings: competitor trans-aconitic acid; no inhibition up to the stated excess
Description: as §1, §2, §3, §4

B1: mAB 2050/535: particularly suitable anti-EDTA/DTPA monoclonal antibody; VL and VH sequences in SEQ ID NO:1-4 (antibody, V domains shown)
VH: LQQSGAELVKPGASVKLSCTSGLNIKDTYINWVKQRPEQGLEWIGRIGPANGNTKYDPKFQGKATLTADTSSNTAYLQLSSLTSEDTAVYYCSRRWFFLYWGQGTTVT
VL: QLTQESALTTSPGETVTLTCRSSTGAVTTSNYATWVQEKPDHLFTGLIGGTKNRAPGVPARFSGSLIGDKAALTITGAQTEDEAIYFCALWYSNHWVFGGGTKLKI
10^4: Molar excess of competitor, which leads to 50% inhibition of binding to the solid phase antigen (DTPA-Y)
> 10^5: Molar excess of competitor, which leads to 50% inhibition of binding to the solid phase antigen [1] | Molar excess of competitor, which leads to 50% inhibition of binding to the solid phase antigen [4]
10^3: Molar excess of competitor, which leads to 50% inhibition of binding to the solid phase antigen (DTPA-Cu) | Molar excess of competitor, which leads to 50% inhibition of binding to the solid phase antigen (DTPA-Pb) | Molar excess of competitor, which leads to 50% inhibition of binding to the solid phase antigen (DTPA-Zn)
particularly strong: interaction with EDTA and the complexes thereof ([2]; statement in words, EDTA and its metal complexes)
10^2: Molar excess of competitor, which leads to 50% inhibition of binding to the solid phase antigen (EDTA-Y) | Molar excess of competitor, which leads to 50% inhibition of binding to the solid phase antigen (EDTA-Cu) | Molar excess of competitor, which leads to 50% inhibition of binding to the solid phase antigen (DTPA-Mn) | Molar excess of competitor, which leads to 50% inhibition of binding to the solid phase antigen (DTPA-Cd) | Molar excess of competitor, which leads to 50% inhibition of binding to the solid phase antigen (EDTA-Mn) | Molar excess of competitor, which leads to 50% inhibition of binding to the solid phase antigen (EDTA-Pb) | Molar excess of competitor, which leads to 50% inhibition of binding to the solid phase antigen ([2]; competitor EDTA (noncomplexed), solid phase Y benzyl-DTPA-HSA conjugate) | Molar excess of competitor, which leads to 50% inhibition of binding to the solid phase antigen (EDTA-Cd) | Molar excess of competitor, which leads to 50% inhibition of binding to the solid phase antigen (EDTA-Zn) | Molar excess of competitor, which leads to 50% inhibition of binding to the solid phase antigen [3]
